Measurements from paper PMC5913291.

Target: T1, Interferon regulatory factor 3 (IRF-3) (human (endogenous in HEK293T)), Q14653
T1 chain: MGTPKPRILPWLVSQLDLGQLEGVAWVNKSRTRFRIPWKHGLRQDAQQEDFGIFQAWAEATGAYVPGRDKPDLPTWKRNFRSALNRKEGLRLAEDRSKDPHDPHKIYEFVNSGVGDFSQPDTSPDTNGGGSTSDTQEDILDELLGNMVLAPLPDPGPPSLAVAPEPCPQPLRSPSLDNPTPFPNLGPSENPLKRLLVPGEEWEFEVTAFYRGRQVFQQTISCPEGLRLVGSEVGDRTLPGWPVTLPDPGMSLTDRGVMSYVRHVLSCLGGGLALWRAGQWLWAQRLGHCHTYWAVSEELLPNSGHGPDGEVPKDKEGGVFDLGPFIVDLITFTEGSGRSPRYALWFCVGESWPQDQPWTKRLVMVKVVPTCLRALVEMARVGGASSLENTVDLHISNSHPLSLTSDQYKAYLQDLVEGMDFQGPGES
Experiment: native gel or EMSA; lysates of HEK293T cells transfected with HCV 3'-UTR RNA, left untreated or treated with 2.5 mM cFP, 12 h post-transfection; native PAGE and immunoblot for IRF-3 dimers
Conditions: remark: other sources report otherwise

B1: Interferon regulatory factor 3 (IRF-3), Q14653 1-427 (natural protein)
chain: T1 chain
stoichiometry N: 2
